Measurements published in article PMC9463536 (The Journal of Biological Chemistry, 2022).

Target: T1, human claudin-4, biotinylated with NHS-PEG4-biotin (human, UniProt O14493 1-209)
T1 construct: also called biotinylated claudin-4
T1 sequence: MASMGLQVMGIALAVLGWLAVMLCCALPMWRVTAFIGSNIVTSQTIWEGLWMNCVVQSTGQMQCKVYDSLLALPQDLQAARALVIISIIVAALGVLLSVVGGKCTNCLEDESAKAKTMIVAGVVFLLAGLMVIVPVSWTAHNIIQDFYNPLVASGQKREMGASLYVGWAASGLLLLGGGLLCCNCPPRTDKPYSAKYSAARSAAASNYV
Assay: BLI
Conditions: both partners purified

B1: cCpE^1 (cCpE^[change]) (domain or fragment)
chain: KEILDLAAATERLNLTDALNSNPAGNLYDWRSSNSYPWTQKLNLHLTITATGQKYRILASKIVDFNIYSNNFNNLVKLEQSLGDGVKDHYVDISLDAGQYVLVMKANSSYSGNYPYSILFQKF
B1 was tested. Which Kd did it give?
The Kd was roughly 3 nM.
